No end group written: not given here.

The target in assay [1] is T1, human Y5 receptor (human, UniProt Q15761 1-445).
T1 sequence (looked up): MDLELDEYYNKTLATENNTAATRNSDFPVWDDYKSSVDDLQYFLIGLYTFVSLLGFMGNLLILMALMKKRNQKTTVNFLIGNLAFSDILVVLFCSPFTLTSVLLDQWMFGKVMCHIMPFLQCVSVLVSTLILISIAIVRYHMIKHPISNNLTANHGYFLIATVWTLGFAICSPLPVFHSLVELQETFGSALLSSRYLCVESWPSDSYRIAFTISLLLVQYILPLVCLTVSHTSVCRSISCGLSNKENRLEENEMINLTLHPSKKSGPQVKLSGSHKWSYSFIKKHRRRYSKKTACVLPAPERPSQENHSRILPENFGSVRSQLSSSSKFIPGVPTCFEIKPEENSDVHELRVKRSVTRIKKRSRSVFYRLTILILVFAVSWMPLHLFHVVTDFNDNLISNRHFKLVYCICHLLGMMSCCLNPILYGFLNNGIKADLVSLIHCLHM
The experiment in a line: cell-based or functional assay.

The target of assay [2] is T1, human Y5 receptor. As to the kind of experiment: competition binding, 125I-NPY displaced, COS-7 cells with human Y5.
Protocol: (§1) Transfected COS-7 cells are transferred to culture plates one day after transfection at a density of 40×10^3 cells per well aiming at 5-8% binding of the radioactive ligand. […] Determinations are made in duplicate. Steady state binding is reached with the radioactive ligand under these conditions. EC50 values were calculated using a standard pharmacological data handling software, Prism 3.0 (graphPad Sofware, San Diego, USA).
Assay [3] concerns the target T2, human Y2 receptor (human, UniProt P49146 1-381).
T2 sequence (looked up): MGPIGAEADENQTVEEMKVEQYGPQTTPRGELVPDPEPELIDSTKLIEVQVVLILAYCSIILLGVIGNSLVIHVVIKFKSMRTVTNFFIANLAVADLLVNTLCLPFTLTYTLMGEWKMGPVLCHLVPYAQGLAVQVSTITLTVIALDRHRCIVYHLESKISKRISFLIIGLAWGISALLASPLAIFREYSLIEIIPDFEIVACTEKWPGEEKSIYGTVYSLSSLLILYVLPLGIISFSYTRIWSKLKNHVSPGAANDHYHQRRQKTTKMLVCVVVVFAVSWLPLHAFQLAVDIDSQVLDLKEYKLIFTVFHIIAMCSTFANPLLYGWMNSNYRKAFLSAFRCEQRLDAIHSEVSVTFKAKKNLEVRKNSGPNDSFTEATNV
As to the kind of experiment: cell-based or functional assay.

The target in assay [4] is T3, human Y4 receptor (human, UniProt P50391 1-375). As to the kind of experiment: cell-based or functional assay.
T3 sequence (P50391 whole entry): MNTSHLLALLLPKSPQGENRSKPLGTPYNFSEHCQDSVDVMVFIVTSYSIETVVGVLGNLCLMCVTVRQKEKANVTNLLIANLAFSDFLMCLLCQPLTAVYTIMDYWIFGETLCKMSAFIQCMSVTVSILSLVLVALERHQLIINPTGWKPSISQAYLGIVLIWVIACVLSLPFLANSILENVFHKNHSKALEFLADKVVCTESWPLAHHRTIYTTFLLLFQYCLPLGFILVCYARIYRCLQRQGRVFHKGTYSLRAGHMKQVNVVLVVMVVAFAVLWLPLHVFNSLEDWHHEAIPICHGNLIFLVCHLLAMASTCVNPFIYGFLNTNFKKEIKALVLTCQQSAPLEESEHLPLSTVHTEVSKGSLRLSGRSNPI
Assay [5] concerns the target T3, human Y4 receptor. The experiment in a line: competition binding, 125I-PP displaced, COS-7 cells with human Y4.
Protocol: as §1

The term IC50 denotes the concentration needed to halve the response being measured. Read a high IC50 as weaker potency in that assay. Turning to KKKKKKRHYLNLVTRQRY-NH2 (also called [Lys]6-PYY25-36) [Lys-Lys-Lys-Lys-Lys-Lys-PYY25-36], the “EC50 (inositol phosphate turnover)” value in assay [1] is > 1000 nM. In addition, the half-maximal inhibitory concentration (IC50) in assay [2] is 429 nM.
Take APLKPVYPGDNATPEQMAQYAADLRRYINMLTRQRY-NH2 [[Lys4,Gln34]PP]: the “EC50 (inositol phosphate turnover)” value is 0.17 nM in assay [3], 64 nM in assay [4] and 3.8 nM in assay [1]. In addition, the figures for the IC50 in assay [5] and in assay [2] were 6 nM and 0.87 nM, respectively.
